The target in assay [1] is LHCP (light-harvesting chlorophyll a/b binding protein), fluorescein-labeled (UniProt P07371). Description: fluorescence polarisation. (In general: Fluorescence polarisation rises when a labelled molecule tumbles more slowly, as on binding a larger partner.)
The next assay addresses cpSRP43 (mature) (UniProt O22265). Kind of assay: fluorescence polarisation.

The term Kd denotes a measure of binding affinity in units of concentration. Higher therefore signals a looser complex. One may read the Ki as a dissociation constant, usually derived from enzyme kinetics or from competition with a known ligand. A lower Ki goes with a stronger hold on the target.

In assay [1], cpSRP43 ΔCD3 (domain or fragment) came in with a Kd of 886 nM.
In assay [1], cpSRP43 ΔCD2 (domain or fragment) registered a Kd of 530 nM.
For the substance L18 peptide, the Ki in the assay with cpSRP43 (mature) came out at 2200 nM.

Source of the values: PMC2917185.
